From patent US20230137139A1, “BIOSYNTHESIS OF CANNABINOIDS AND C[…]” (priority 2020, published 2023)

How the values were obtained:
[1] = tested on: CBCA, THCA, and CBDA production; assay: In vivo TS activity assay, Example 2 protein engineering of A. niger CBCAS, cultures fed olivetolic acid; format: cell-based, S. cerevisiae; conditions: for Mean CBCA / Mean CBDA / Mean THCA: secondary screen, olivetolic acid (Table 8); for % CBCA / % CBDA / % THCA: share of terminal cannabinoid product profile
How it was run: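 S. cerevisiae expressing A. niger CBCAS mutants (MFalpha2/HDEL-tagged) grown 2 days at 30 °C in YEP+4% dextrose, then 4 days at 20 °C in YEP+4% galactose with 1 mM olivetolic acid, spiked every 24 h with 2% galactose and 1 mM olivetolic acid. 100 mM citrate pH 5.5 added, methanol-extracted; CBCA, THCA, CBDA quantified by LC-MS.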

[2] = tested on: CBCVA, THCVA, and CBDVA production; assay: In vivo TS activity assay, Example 2 protein engineering of A. niger CBCAS, cultures fed divaric acid; format: cell-based, S. cerevisiae; conditions: for Mean CBCVA / Mean CBDVA / Mean THCVA: S. cerevisiae strains expressing A. niger CBCAS mutants; for Mean CBCVA / Mean CBDVA / Mean THCVA / average CBCVA titer compared with the A. niger positive control: secondary screen; for Mean CBCVA / Mean CBDVA / Mean THCVA / % CBCVA / % CBDVA / % THCVA: fed divaric acid; for % CBCVA / % CBDVA / % THCVA: share of terminal cannabinoid product profile
How it was run: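 S. cerevisiae expressing A. niger CBCAS point mutants (N-terminal MFalpha2, C-terminal HDEL signal peptides) grown 2 days at 30 °C in YEP+4% dextrose, then 4 days at 20 °C in YEP+4% galactose with 1 mM divaric acid plus daily 2% galactose and 1 mM divaric acid spikes, then 2 days with 100 mM sodium citrate pH 5.5. Methanol extracts analysed by LC-MS; quadruplicate.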

Molecule | Mean CBCA [1] [µg/L] | Mean CBDA [1] [µg/L] | Mean THCA [1] [µg/L] | % CBCA [1] [%] | % CBDA [1] [%] | % THCA [1] [%] | Mean CBCVA [2] [µg/L] | Mean CBDVA [2] [µg/L] | Mean THCVA [2] [µg/L] | average CBCVA titer compared with the A. niger positive control [2] | % CBCVA [2] [%] | % CBDVA [2] [%] | % THCVA [2] [%]
t865741 (protein) MGNTTSIAGRDCLISALGGNSALAVFPNELLWTADVHEYNLNLPVTPAAITYPETAAQIAGVVKCASDYDYKVQARSGGHSFGNYGLGGADGAVVVDMKHFTQFSMDDETYEAVIGPGTTLNDVDIELYNNGKRAMAHGVCPTIKTGGHFTIGGLGPTARQWGLALDHVEEVEVVLANSSIVRASNTQNQDVFFAVKGAAANFGIVTEFKVRTEPAPGLAVQYSYTFNLGSTAEKAQFVKDWQSFISAKNLTRQFMNNMVIFDGDIILEGLFFGSKEQYDALGLEDHFAPKNPGNILVLTDWLGMVGHALEDTILKLVGNTPTWFYAKSLGFRQDTLIPSAGIDEFFEYIANHTAGTPAWFVTLSLEGGAINDVAEDATAYAHRDVLFWVQLFMVNPVGPISDTTYEFTDGLYDVLARAVPESVGHAYLGCPDPRMEDAQQKYWRTNLPRLQELKEELDPKNTFHHPQGVMPA | 15982.40 | 4419.64 | 957.33 | 74.83 | 20.69 | 4.48 | 4388.54 | 0.00 | 2033.77 | higher | 68.33 | 0.00 | 31.67
t865720 (protein) MGNTTSIAGRDCLISALGGNSALAVFPNELLWTADVHEYNLNLPVTPAAITYPETAAQIAGVVKCASDYDYKVQARSGGHSFGNYGLGGADGAVVVDMKHFTQFSMDDETYEAVIGPGTTLGDVDKELYNNGKRAMAHGVCPTIKTGGHFTIGGLGPTARQWGLALDHVEEVEVVLANSSIVRASNTQNQDVFFAVKGAAANFGIVTEFKVRTEPAPGLAVQYSYTFNLGSTAEKAQFVKDWQSFISAKNLTRQFYNNMVIFDGDIILEGLFFGSKEQYDALGLEDHFAPKNPGNILVLTDWLGMVGHALEDTILKLVGNTPTWFYAKSLGFRQDTLIPSAGIDEFFEYIANHTAGTPAWFVTLSLEGGAINDVAEDATAYAHRDVLFWVQLFMVNPVGPISDTTYEFTDGLYDVLARAVPESVGHAYLGCPDPRMEDAQQKYWRTNLPRLQELKEELDPKNTFHHPQGVMPA | 27895.13 | 7663.58 | 1543.57 | 75.18 | 20.66 | 4.16 | 4276.65 | 0.00 | 2090.51 | higher | 67.17 | 0.00 | 32.83
t865723 (protein) MGNTTSIAGRDCLISALGGNSALAVFPNELLWTADVHEYNLNLPVTPAAITYPETAAQIAGVVKCASDYDYKVQARSGGHSFGNYGLGGADGAVVVDMKHFTQFSMDDETYEAVIGPGTTLNDVDIELWNNGKRAMAHGVCPTIKTGGHFTIGGLGPTARQWGLALDHVEEVEVVLANSSIVRASNTQNQDVFFAVKGAAANFGIVTEFKVRTEPAPGLAVQYSYTFNLGSTAEKAQFVKDWQSFISAKNLTRQFYNNMVIFDGDIILEGLFFGSKEQYDALGLEDHFAPKNPGNILVLTDWLGMVGHALEDTILKLVGNTPTWFYAKSLGFRQDTLIPSAGIDEFFEYIANHTAGTPAWFVTLSLEGGAINDVAEDATAYAHRDVLFWVQLFMVNPVGPISDTTYEFTDGLYDVLARAVPESVGHAYLGCPDPRMEDAQQKYWRTNLPRLQELKEELDPKNTFHHPQGVMPA | 22893.08 | 7334.92 | 1788.74 | 71.50 | 22.91 | 5.59 | 4223.36 | 0.00 | 2125.21 | higher | 66.52 | 0.00 | 33.48
t865736 (protein) MGNTTSIAGRDCLISALGGNSALAVFPNELLWTADVHEYNLNLPVTPAAITYPETAAQIAGVVKCASDYDYKVQARSGGHSFGNYGLGGADGAVVVDMKHFTQFSMDDETYEAVIGPGTTLNDVDIELYNNGKRAMAHGVCPTIKTGGHFTIGGLGPTARQWGLALDHVEEVEVVLANSSIVRASNTQNQDVFFAVKGAAANFGIVTEFKVRTEPAPGLAVQYSYTFNLGSTAEKAQFVKDWQSFISAKNLTRQFYNNMVIFDGDIILEGLFFGSKEQYDALGLEDHFAPKNPGSILVLTDWLGMVGHALEDTILKLVGNTPTWFYAKSLGFRQDTLIPSAGIDEFFEYIANHTAGTPAWFVTLSLEGGAINDVAEDATAYAHRDVLFWVQLFMVNPVGPISDTTYEFTDGLYDVLARAVPESVGHAYLGCPDPRMEDAQQKYWRTNLPRLQELKEELDPKNTFHHPQGVMPA | 24918.92 | 6931.79 | 1690.72 | 74.29 | 20.67 | 5.04 | 3847.79 | 0.00 | 1963.40 | higher | 66.21 | 0.00 | 33.79
t865751 (protein, expressed in S. cerevisiae strain) MGNTTSIAGRDCLISALGGNSALAVFPNELLWTADVHEYNLNLPVTPAAITYPETAAQIAGVVKCASDYDYKVQARSGGHSFGNYGLGGADGAVVVDMKHFTQFSMDDETYEAVIGPGTTLNDVDIELYNNGKRAMAHGVCPTIKTGGHFTIGGLGPTARQWGLALDHVEEVEVVLANSSIVRASNTQNQDVFFAVKGAAANFGIVTEFKVRTEPAPGLAVQYSYTFNLGSTAEKAQFVKDWQSFISAKNLTRQFYNNMVIFDGDIILEGLFFGSKEQYDALGLEDHFAPKNPGNILVLTDWLGMVGHALEDTILKLVGNTPTWFYAKSLGFRQDTLIPSAGIDEFFEYIANHTAGTPAWFVTLSLEGGAINDVAEDATAYAHRDVLFWVQLFMVNPVGPISDTTYEFTDGLYDVLARAVPEAVGHAYLGCPDPRMEDAQQKYWRTNLPRLQELKEELDPKNTFHHPQGVMPA | 31396.25 | 8775.99 | 1709.83 | 74.96 | 20.95 | 4.08 | 3998.68 | 0.00 | 1894.39 | higher | 67.85 | 0.00 | 32.15
